The supplement of paper PMC12667976

B1: library; numbered along this chain (parent)
chain: MATDAALRRLLRLHRTEIAVAVDSAFPLLHALADHDVVPEDKFQETLHLKEKEGCPQAFHALLSWLLTQDSTAILDFWRVLFKDYNLERYGRLQPILDSFPKDVDLSQPRKGRKPPAVPKALVPPPRLPTKRKASEEARAAAPAALTPRGTASPGSQLKAKPPKKPESSAEQQRLPLGNGIQTMSASVQRAVAMSSGDVPGARGAVEGILIQQVFESGGSKKCIQVGGEFYTPSKFEDSGSGKNKARSSSGPKPLVRAKGAQGAAPGGGEARLGQQGSVPAPLALPSDPQLHQKNEDECAVCRDGGELICCDGCPRAFHLACLSPPLREIPSGTWRCSSCLQATVQEVQPRAEEPRPQEPPVETPLPPGLRSAGEEVRGPPGEPLAGMDTTLVYKHLPAPPSAAPLPGLDSSALHPLLCVGPEGQQNLAPGARCGVCGDGTDVLRCTHCAAAFHWRCHFPAGTSRPGTGLRCRSCSGDVTPAPVEGVLAPSPARLAPGPAKDDTASHEPALHRDDLESLLSEHTFDGILQWAIQSMARPAAPFPS

Variants of: B1
Test: AIRE transcriptional activation functional score (insulin promoter-GFP; nonsense median 0, synonymous median 1) (normalised score); higher = higher AIRE activity (more reporter activation)
Conditions: with insulin promoter-GFP reporter in HEK293
Outline: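 Three regions of AIRE were covered by codon-optimized NNN-codon libraries, which Bxb1 recombinase integrated into Flp-In T-REx HEK293 landing-pad cells that carry an insulin core promoter-GFP reporter. Integrants (mCherry+, BFP−) were sorted at day 7 and expanded 7 days, and then the top 10% GFP population and the unselected integrant population were tile-sequenced. The functional score is the enrichment of each variant in select versus non-select cells, with wild type subtracted. Variants required 10 counts per million in non-select, and values were rescaled to a nonsense median of 0 and a synonymous median of 1, then averaged over biological replicates.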

AIRE transcriptional activation functional score: each site, then its substitutions
W335: A 1.3 | L 0.997 | I 1.02 | P 1.04 | T 1.26 | K 1.12 | V 1.24 | M 1.39 | R 1.29 | Q 1.19 | N 0.721 | C 1.24 | S 1.27 | E 1.3 | F 0.764 | H 0.428 | G 1.27 | D 1.1 | Y 0.768
C337: Q 1.5 | G 1.5 | K 1.28 | H 1.85 | A 1.51 | L 1.16 | F 0.845 | N 1.53 | S 1.33 | Y 1.07 | V 1.13 | P 1.47 | W 0.733 | I 0.888 | E 1.73 | M 0.956 | D 1.68 | R 1.12 | T 1.42
C340: T 1.71 | R 1.31 | P 1.49 | E 1.49 | Q 1.33 | H 1.46 | S 1.52 | N 1.67 | M 1.61 | V 1.42 | D 1.7 | L 1.13 | W 0.727 | I 1.22 | F 0.877 | K 1.62 | G 1.44 | A 1.65
G333: E 0.832 | S 0.365 | L 1.17 | D 0.864 | F 1.02 | Q 0.597 | T 0.561 | C 1.14 | N 0.719 | R 1.08 | I 0.774 | A 0.871 | P 0.594 | W 1.82 | V 1.05 | K 1.24 | M 1.72 | Y 1.26
S338: W 0.904 | P 0.56 | V 0.911 | Y 1.11 | I 1.18 | H 1.25 | D 1.08 | E 0.862 | A 0.683 | Q 0.916 | G 1.11 | N 1.3 | M 1.32 | R 1.2 | T 1.21 | F 0.948 | K 1.08 | L 1.01
R336: P 1.38 | I 0.734 | W 0.655 | C 1.2 | S 1.04 | V 0.812 | F 1.13 | E 0.646 | K 1.67 | Y 0.141 | G 1.33 | Q 0.346 | H 0.786 | L 0.658 | N 1.03 | T 0.895 | M 0.49 | D 1.73 | A 1.02
S339: D 0.853 | A 1.13 | M 0.1 | I 0.884 | T 1.12 | V 0.99 | F 0.807 | R 1.11 | H 1.27 | Y 1.09 | W 0.962 | Q 1.16 | P 1.13 | K 0.757 | N 0.771 | C 0.985 | E 0.838 | G 0.951 | L 0.775
T334: N 0.91 | Y 1.17 | V 0.952 | M 1.08 | R 1.06 | F 1.25 | K 0.794 | I 0.977 | A 0.83 | D 0.352 | C 0.7 | S 0.928 | P 0.902 | W 1.39 | H 0.766 | G 1.23 | L 1.12 | Q 0.621
S332: H 0.932 | C 0.951 | E 0.387 | N 1.56 | R 1.04 | G 1.09 | I 0.887 | W 1.41 | T 1.23 | D 0.652 | F 1.34 | A 0.774 | L 1.17 | M -0.16 | Y 1.13 | V 1.3 | K 0.518 | P 0.628 | Q 0.542
